Test results: US20260008815A1, “CYCLIC PEPTIDE OR SALT THEREOF, AND USES THEREOF” (FUJIFILM Corporation, priority 2023, published 2026)
Numbered stars: 1 amine (or outer) side, 2 acyl side, 3 side chain; on linkers, the order of the positions; unused ones are H or OH. Bridge positions count the residues as written; N and C are the ends. Square brackets hold non-standard residues; d marks the D form. Primed or numbered codes have the meaning given here. Ends that are not written are not given here. acetyl″ = bridging -C(=O)-CH2- from a haloacetyl (chloroacetyl) group on the side-chain amine of K/Orn/Dab/Dap, the thiol sulfur replaces the halogen on its CH2 (X(acetyl) notation); acetyl = acetyl (haloacetyl before ring closure) on the side-chain amine, O=C(C[*:1])[*:2]; COCH2 = acetyl group that carries the bridge; hCys = N[C@@H](CCS)C(=O)O

biological target: T1, Recombinant Human FGFR2 alpha (IIIc) Fc Chimera Protein (Homo sapiens, UniProt P21802); test: ELISA binding affinity of enzymatically synthesized peptide to FGFR; details: ELISA luminescence signal at 10 nmol/L peptide, SEQ ID NO: 47 at 10 nmol/L standardized to 1; enzyme synthesis product
T1 construct: Fc (chimera); purchased R&D systems 712-FR-050
Outline: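 FGFR2 alpha (IIIc) Fc chimera (5 ng/well) was immobilized, and Myc-tagged peptide was bound 3 h at room temperature, then detected with anti-Myc antibody (2 h) and chemiluminescent substrate. Signal was corrected against FGFR-free wells. Score A–D was the luminescence at 10 nmol/L peptide, normalized to cyclic peptide SEQ ID NO: 47.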

T1 sequence (P21802 with tags, fused parts or gaps limits assumed): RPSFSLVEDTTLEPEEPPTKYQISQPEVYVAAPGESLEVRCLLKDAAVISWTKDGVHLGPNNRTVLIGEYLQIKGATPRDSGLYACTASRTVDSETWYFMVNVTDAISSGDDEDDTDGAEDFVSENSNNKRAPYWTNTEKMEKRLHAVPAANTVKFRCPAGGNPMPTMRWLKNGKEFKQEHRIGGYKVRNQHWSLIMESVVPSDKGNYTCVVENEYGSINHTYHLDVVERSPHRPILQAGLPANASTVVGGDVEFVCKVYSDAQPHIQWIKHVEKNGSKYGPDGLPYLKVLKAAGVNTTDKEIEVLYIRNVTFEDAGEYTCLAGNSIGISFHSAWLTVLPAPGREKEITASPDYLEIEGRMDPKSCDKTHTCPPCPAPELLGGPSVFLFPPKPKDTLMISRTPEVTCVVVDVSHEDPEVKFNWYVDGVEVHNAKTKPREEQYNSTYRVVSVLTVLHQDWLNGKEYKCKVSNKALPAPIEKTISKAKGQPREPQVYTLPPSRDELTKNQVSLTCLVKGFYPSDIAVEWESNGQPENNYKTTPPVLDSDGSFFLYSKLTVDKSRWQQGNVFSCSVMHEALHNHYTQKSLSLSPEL

Evaluation result of binding affinity to FGFR | Molecule
C (0.1 or more and less than 0.5) | 52 (VCNENNWSRSQYHFFLQYKY; Description of Artificial Sequence: Cyclic peptide) [compound 52]
A (0.7 or more) | 180 (YCEHNYLDPEQYQYFIYFK(COCH2)Y; thioether 2-19 (inferred)) [compound 180]
A (0.7 or more) | 65 (KCPQNFINPVQWRYFAHYK(COCH2)N; thioether 2-19 (inferred)) [compound 65]
C (0.1 or more and less than 0.5) | 190 (YCEENQLDPEQYQYFIYFK(COCH2)Y; thioether 2-19 (inferred)) [compound 190]
A (0.7 or more) | 78 (WCPQNFINPVQWRYFQHYK(COCH2)N; thioether 2-19 (inferred)) [compound 78]
A (0.7 or more) | 132 (ECQENFVDRQQYWYFLSYK(COCH2)F; thioether 2-19 (inferred)) [compound 132]
A (0.7 or more) | 76 (FCPQNFINPVQWRYFQHYK(COCH2)N; thioether 2-19 (inferred)) [compound 76]
A (0.7 or more) | 161 (YCSENYLDPEQYQYFIYFK(COCH2)Y; thioether 2-19 (inferred)) [compound 161]
A (0.7 or more) | 249 (YCEENYLDPRQYQYFIYFK(COCH2)Y; thioether 2-19 (inferred)) [compound 249]
C (0.1 or more and less than 0.5) | 431 (CHENYLDPEQYQYFHYFK(COCH2); thioether 1-18 via acetyl) [compound 431]
A (0.7 or more) | 67 (KCPQNFINPVQWRYFQHYKA; not fully specified; also: cyclic peptide, ring places not shown) [compound 67]

Second part, the molecule before the results:

Molecule | Evaluation result of binding affinity to FGFR
159 (YCNENYLDPEQYQYFIYFK(COCH2)Y; thioether 2-19 (inferred)) [compound 159] | A (0.7 or more)
242 (YCEENYLDPYQYQYFIYFK(COCH2)Y; thioether 2-19 (inferred)) [compound 242] | A (0.7 or more)
153 (YCLENYLDPEQYQYFIYFK(COCH2)Y; thioether 2-19 (inferred)) [compound 153] | A (0.7 or more)
108 (LCRNYINPQQWRYFALYK(COCH2)Y; thioether 2-18 (inferred)) [compound 108] | A (0.7 or more)
428 (ECDQAQQVYALIYRYLYQLQK(COCH2)V; thioether 2-21 via acetyl) [compound 428] | C (0.1 or more and less than 0.5)
228 (YCEENYLDNEQYQYFIYFK(COCH2)Y; thioether 2-19 (inferred)) [compound 228] | A (0.7 or more)
116 (QCYQNWYLYQYLVERYYK(COCH2)D; thioether 2-18 (inferred)) [compound 116] | C (0.1 or more and less than 0.5)
192 (YCEENDLDPEQYQYFIYFK(COCH2)Y; thioether 2-19 (inferred)) [compound 192] | C (0.1 or more and less than 0.5)
118 (LCPVPQQTDYLRWYQIIHK(COCH2)Q; thioether 2-19 (inferred)) [compound 118] | C (0.1 or more and less than 0.5)
105 (QCPQNFINPVQSRYFQHYK(COCH2)N; thioether 2-19 (inferred)) [compound 105] | C (0.1 or more and less than 0.5)

biological target: T2, Recombinant Human FGFR2 alpha (IIIc) Fc Chimera Protein, CF (R&D systems, 712-FR-050) (human, UniProt P21802 22-377); test: SPR, 10 nmol/L peptide over immobilized FGFR2-Fc; details: not given
T2 construct: bought; not shown: Fc part of the chimera
Procedure: A CM5 sensor chip (Cytiva, 29149603) was set in Biacore-T200 (manufactured by Cytiva) which is a surface plasmon resonance device, and an HBS-EP buffer (Cytiva, BR100826) was added as a running buffer at a flow rate of 10 μL/min to equilibrate the flow channel. Next, 70 μL of a mixed aqueous solution of 0.2 mol/L 1-(3-dimethylaminopropyl)-3-ethylcarbodiimide (EDC) and 0.05 mol/L N-hydroxysuccinimide (NHS) was added to activate the sensor chip. Then, Recombinant Human FGFR2 alpha (IIIc) Fc Chimera Protein CF (R&D systems, 712-FR-050) prepared at 50 nmol/L in an Acetate 4.5 buffer (Cytiva, BR100350) was added thereto to perform immobilization at about 5000 RU. Thereafter, the blocking treatment was performed with an ethanolamine solution. In addition, in another flow channel of the same sensor chip, blocking treatment was performed immediately after activation without immobilizing FGFR.
A cyclic peptide diluted to 10 nmol/L using HBS-EP was added to each flow channel of the FGFR-immobilized sensor chip produced above at 25° C. for 10 minutes, then HBS-EP was allowed to flow as a running buffer for 30 minutes, and the binding of the cyclic peptide to FGFR was measured. Thereafter, a regeneration treatment of removing the bound cyclic peptide was performed by repeating the flow of a regeneration liquid in which sodium chloride powder was dissolved in Glysine 1.5 (Cytiva, BR100354) to a final concentration of 0.15 mol/L for 1 minute in each flow channel twice. The binding amount of the cyclic peptide was evaluated from the difference between the measured value of Biacore-T200 in the flow channel in which FGFR was immobilized and the measured value of Biacore-T200 in the flow channel in which FGFR was not immobilated, in a case where a 10 nmol/L cyclic peptide was allowed to flow.

T2 sequence (P21802 22-377, change not shown): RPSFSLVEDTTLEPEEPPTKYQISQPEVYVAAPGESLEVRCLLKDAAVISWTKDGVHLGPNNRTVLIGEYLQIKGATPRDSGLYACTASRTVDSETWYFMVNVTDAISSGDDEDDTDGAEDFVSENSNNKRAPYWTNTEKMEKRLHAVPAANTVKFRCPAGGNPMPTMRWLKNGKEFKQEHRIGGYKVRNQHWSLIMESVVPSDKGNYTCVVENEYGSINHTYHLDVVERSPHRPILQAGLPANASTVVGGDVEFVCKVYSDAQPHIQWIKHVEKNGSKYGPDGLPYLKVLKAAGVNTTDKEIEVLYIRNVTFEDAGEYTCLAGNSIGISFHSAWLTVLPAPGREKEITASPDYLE

binding amount (SPR, cyclic peptide molecules bound per FGFR molecule at 10 nmol/L peptide) | Molecule
≥ 0.7 moleculesofthecyclicpeptide/onemoleculeoffgfr | YKEENYLDPEQYQYFIYFXYKKK (thioether ring (K(acetyl))-(Hcy), chemically synthesized) [cyclic peptide SEQ ID NO: 446]
≥ 0.7 moleculesofthecyclicpeptide/onemoleculeoffgfr | YXEENYLDPEQYQYFIYFXYKKK (not fully specified; thioether ring (Orn(acetyl))-(Hcy), chemically synthesized) [cyclic peptide SEQ ID NO: 447]
0.1 to 0.5 moleculesofthecyclicpeptide/onemoleculeoffgfr | XHENYLDPEQYQYFHYFKYKKK (thioether ring (Hcy)-(K(acetyl)), chemically synthesized) [cyclic peptide SEQ ID NO: 454]
≥ 0.7 moleculesofthecyclicpeptide/onemoleculeoffgfr | QXPQNFINPVQWRYFQHYXNKKK (not fully specified; thioether ring (Orn(acetyl))-(Hcy), chemically synthesized) [cyclic peptide SEQ ID NO: 439]
≥ 0.7 moleculesofthecyclicpeptide/onemoleculeoffgfr | YXEENYLDPEQYQYFIYFXYKKK (not fully specified; thioether ring (Dap(acetyl))-(Hcy), chemically synthesized) [cyclic peptide SEQ ID NO: 449]
≥ 0.7 moleculesofthecyclicpeptide/onemoleculeoffgfr | YXEENYLDPEQYQYFIYFXYKKK (not fully specified; thioether ring (Hcy)-(Orn(acetyl)), chemically synthesized) [cyclic peptide SEQ ID NO: 443]
≥ 0.7 moleculesofthecyclicpeptide/onemoleculeoffgfr | QXPQNFINPVQWRYFQHYXNKKK (not fully specified; thioether ring (Hcy)-(Orn(acetyl)), chemically synthesized) [cyclic peptide SEQ ID NO: 434]

Continued, molecule first:

Molecule | binding amount (SPR, cyclic peptide molecules bound per FGFR molecule at 10 nmol/L peptide)
YCEENYLDPEQYQYFIYFCYKKK (disulfide 2-19 (inferred), chemically synthesized) [cyclic peptide SEQ ID NO: 451] | < 0.1 moleculesofthecyclicpeptide/onemoleculeoffgfr
QK(COCH2)PQNFINPVQWRYFQHY[hCys]NKKK (thioether 2-19 via acetyl″, chemically synthesized) [cyclic peptide SEQ ID NO: 437] | ≥ 0.7 moleculesofthecyclicpeptide/onemoleculeoffgfr
YXEENYLDPEQYQYFIYFXYKKK (not fully specified; thioether ring (Dab(acetyl))-(Hcy), chemically synthesized) [cyclic peptide SEQ ID NO: 448] | ≥ 0.7 moleculesofthecyclicpeptide/onemoleculeoffgfr
QXPQNFINPVQWRYFQHYXNKKK (not fully specified; thioether ring (Dap(acetyl))-(Hcy), chemically synthesized) [cyclic peptide SEQ ID NO: 441] | ≥ 0.7 moleculesofthecyclicpeptide/onemoleculeoffgfr
Y[hCys]EENYLDPEQYQYFIYFK(COCH2)YKKK (thioether 2-19 via acetyl″, chemically synthesized) [cyclic peptide SEQ ID NO: 442] | ≥ 0.7 moleculesofthecyclicpeptide/onemoleculeoffgfr
YXHENYLDPEQYQYFHYFKYKKK (thioether ring (Hcy)-(K(acetyl)), chemically synthesized) [cyclic peptide SEQ ID NO: 452] | ≥ 0.7 moleculesofthecyclicpeptide/onemoleculeoffgfr
QXPQNFINPVQWRYFQHYXNKKK (not fully specified; thioether ring (Dab(acetyl))-(Hcy), chemically synthesized) [cyclic peptide SEQ ID NO: 440] | ≥ 0.7 moleculesofthecyclicpeptide/onemoleculeoffgfr
YXHENYLDPEQYQYFHYFKKKK (thioether ring (Hcy)-(K(acetyl)), chemically synthesized) [cyclic peptide SEQ ID NO: 453] | 0.1 to 0.5 moleculesofthecyclicpeptide/onemoleculeoffgfr
Q[hCys]PQNFINPVQWRYFQHYK(COCH2)NKKK (thioether 2-19 via acetyl″, chemically synthesized) [cyclic peptide SEQ ID NO: 433] | ≥ 0.7 moleculesofthecyclicpeptide/onemoleculeoffgfr
QXPQNFINPVQWRYFQHYXNKKK (not fully specified; thioether ring (Hcy)-(Dab(acetyl)), chemically synthesized) [cyclic peptide SEQ ID NO: 435] | ≥ 0.7 moleculesofthecyclicpeptide/onemoleculeoffgfr
YXEENYLDPEQYQYFIYFXYKKK (not fully specified; thioether ring (Hcy)-(Dab(acetyl)), chemically synthesized) [cyclic peptide SEQ ID NO: 444] | 0.5 to 0.7 moleculesofthecyclicpeptide/onemoleculeoffgfr
QK(COCH2)PQNFINPVQWRYFQHY[hCys]NKKK (thioether 2-19 via acetyl″, chemically synthesized) [cyclic peptide SEQ ID NO: 438] | ≥ 0.7 moleculesofthecyclicpeptide/onemoleculeoffgfr
